Patent publication US20200317806A1 (Hoffmann-La Roche, published 2020)

Molecular target: T1, murine EpCAM recombinant ectodomain (ECD), C-terminally His-Avi tagged (mouse)
T1 construct: also called mu EpCAM; EpCAM ECD
T1 chain: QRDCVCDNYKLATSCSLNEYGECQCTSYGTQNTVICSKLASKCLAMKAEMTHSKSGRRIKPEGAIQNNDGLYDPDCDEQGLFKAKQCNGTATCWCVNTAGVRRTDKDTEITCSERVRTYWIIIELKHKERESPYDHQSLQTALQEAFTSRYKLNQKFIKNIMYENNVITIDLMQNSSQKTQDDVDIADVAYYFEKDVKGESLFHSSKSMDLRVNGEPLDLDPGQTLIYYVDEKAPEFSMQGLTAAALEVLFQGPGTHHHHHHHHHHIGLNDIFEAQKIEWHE
Experiment: SPR (Biacore), antibody captured by anti-mouse IgG, EpCAM ECD as analyte, 37 C
From the text: This system is well established for the study of molecule interactions. It allows a continuous real-time monitoring of ligand/analyte bindings and thus the determination of association rate constants (ka), dissociation rate constants (kd), and equilibrium constants (KD) in various assay settings. SPR-technology is based on the measurement of the refractive index close to the surface of a gold coated biosensor chip. Changes in the refractive index indicate mass changes on the surface caused by the interaction of immobilized ligand with analyte injected in solution. If molecules bind to immobilized ligand on the surface the mass increases, in case of dissociation the mass decreases. For capturing, a goat anti-mouse IgG antibody was immobilized on the surface of a CM5 biosensorchip using amine-coupling chemistry according to the manufacturer's instructions. Flow cells were activated with a 1:1 mixture of 0.1 M N-hydroxysuccinimide and 0.4 M 1-ethyl-3-(3-dimethylaminopropyl)-carbodiimide hydrochloride at a flow rate of 5 μl/min at 25° C. Anti-mouse IgG antibody was injected in 10 mM sodium acetate, pH 4.5 at 10 μg/mL. A reference control flow cell was treated in the same way but with vehicle buffers only instead of the capturing antibody. Surfaces were blocked with an injection of 1 M ethanolamine/HCl pH 8.5. […] All interactions were performed at 37° C., using PBS-T as running buffer. The analytes were injected in a series of threefold increasing concentrations (EGFR ECD 4.12-1000 nM and EpCAM ECD 0.91-2000 nM in PBS-T+0.1% BSA) with a flow rate of 50 μl/min, 180 sec association, 1200 sec dissociation. The capture antibody was regenerated after each cycle with 10 mM glycine, pH 2.0 at a flow rate of 30 μl/min for 60 sec. Signals were detected at a rate of one signal per second.

B1: G8.8 (mouse EpCAM-specific antibody) (antibody, mouse IgG2a, kappa, V domains shown)
VH: EVQLAESGGGLVQPGRSMKLSCAASGFTFSNFPMAWVRQAPTKGLEWVATISTSGGSTYYRDSVKGRFTISRDNAKSTLYLQMNSLRSEDTATYYCTRTLYILRVFYFDYWGQGVMVTVSS
VL: DIQMTQSPASLSASLGETVSIECLASEGISNDLAWYQQKSGKSPQLLIYATSRLQDGVPSRFSGSGSGTRYSLKISGMQPEDEADYFCQQSYKYPWTFGGGTKLELKR
notes: Full heavy and light chains; also called EpCAM G8.8; anti-EpCAM mono-specific antibody
With B1 the Kd was 61 nM, the koff was 0.013 s⁻¹ and the kon was 220000 M⁻¹ s⁻¹.
